{
  "source": "IntAct's records for PubMed 19361433",
  "parents": {"B1": {"name": "Probable ATP-dependent transporter SufC (Escherichia coli (strain K12)), P77499 (parent)", "chain": "MLSIKDLHVSVEDKAILRGLSLDVHPGEVHAIMGPNGSGKSTLSATLAGREDYEVTGGTVEFKGKDLLALSPEDRAGEGIFMAFQYPVEIPGVSNQFFLQTALNAVRSYRGQETLDRFDFQDLMEEKIALLKMPEDLLTRSVNVGFSGGEKKRNDILQMAVLEPELCILDESDSGLDIDALKVVADGVNSLRDGKRSFIIVTHYQRILDYIKPDYVHVLYQGRIVKSGDFTLVKQLEEQGYGWLTEQQ", "partner": "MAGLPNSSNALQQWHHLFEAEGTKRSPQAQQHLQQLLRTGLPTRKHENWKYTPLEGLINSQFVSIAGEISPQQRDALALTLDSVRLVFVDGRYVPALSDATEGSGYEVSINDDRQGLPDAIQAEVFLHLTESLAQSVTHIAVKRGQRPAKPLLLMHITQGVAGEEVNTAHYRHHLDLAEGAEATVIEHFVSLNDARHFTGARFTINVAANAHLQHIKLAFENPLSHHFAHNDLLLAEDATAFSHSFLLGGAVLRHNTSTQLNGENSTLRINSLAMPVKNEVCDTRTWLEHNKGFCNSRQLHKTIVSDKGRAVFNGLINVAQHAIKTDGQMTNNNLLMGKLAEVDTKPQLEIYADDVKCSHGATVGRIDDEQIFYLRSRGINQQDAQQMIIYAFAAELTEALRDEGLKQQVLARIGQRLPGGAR"}},
  "data": [
    {"variants_of": "B1", "details": "with sufd_ecoli sufD", "values": [
      {"variant": "MLSIKDLHVSVEDKAILRGLSLDVHPGEVHAIMGPNGSGKSTLSATLAGREDYEVTGGTVEFKGKDLLALSPEDRAGEGIFMAFQCPVEIPGVSNQFFLQTALNAVRSYRGQETLDRFDFQDLMEEKIALLKMPEDLLTRSVNVGFSGGEKKRNDILQMAVLEPELCILDESDSGLDIDALKVVADGVNSLRDGKRSFIIVTHYQRILDYIKPDYVHVLYQGRIVKSGDFTLVKQLEEQGYGWLTEQQ", "note": "[Y86C]", "effect of a mutation on the interaction": "increasing interaction"}
    ]}
  ]
}
